These results are taken from IntAct's records for PubMed 20562859.

One assay concerns the target T1, ATG16L2 (UniProt Q8NAA4).
T1 sequence: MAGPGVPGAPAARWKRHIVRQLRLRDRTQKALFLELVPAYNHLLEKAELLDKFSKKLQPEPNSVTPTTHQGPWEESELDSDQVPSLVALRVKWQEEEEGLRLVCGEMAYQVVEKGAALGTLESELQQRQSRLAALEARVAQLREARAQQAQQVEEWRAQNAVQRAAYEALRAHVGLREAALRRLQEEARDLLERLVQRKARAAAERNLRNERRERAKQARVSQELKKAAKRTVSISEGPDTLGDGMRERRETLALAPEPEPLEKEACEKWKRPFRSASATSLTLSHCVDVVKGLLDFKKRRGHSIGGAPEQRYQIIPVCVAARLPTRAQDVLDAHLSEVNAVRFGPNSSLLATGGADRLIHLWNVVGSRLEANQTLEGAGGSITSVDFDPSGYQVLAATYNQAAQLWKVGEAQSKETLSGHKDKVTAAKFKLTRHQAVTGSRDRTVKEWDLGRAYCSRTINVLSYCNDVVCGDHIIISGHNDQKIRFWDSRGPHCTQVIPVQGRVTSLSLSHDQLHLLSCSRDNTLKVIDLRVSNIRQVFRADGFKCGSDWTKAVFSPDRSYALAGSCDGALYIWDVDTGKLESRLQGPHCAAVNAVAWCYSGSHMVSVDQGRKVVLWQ

A further assay addresses fan_human NSMAF (UniProt Q92636).
A further assay concerns the target T2, fyco1_human FYCO1 (UniProt Q9BQS8).
T2 sequence: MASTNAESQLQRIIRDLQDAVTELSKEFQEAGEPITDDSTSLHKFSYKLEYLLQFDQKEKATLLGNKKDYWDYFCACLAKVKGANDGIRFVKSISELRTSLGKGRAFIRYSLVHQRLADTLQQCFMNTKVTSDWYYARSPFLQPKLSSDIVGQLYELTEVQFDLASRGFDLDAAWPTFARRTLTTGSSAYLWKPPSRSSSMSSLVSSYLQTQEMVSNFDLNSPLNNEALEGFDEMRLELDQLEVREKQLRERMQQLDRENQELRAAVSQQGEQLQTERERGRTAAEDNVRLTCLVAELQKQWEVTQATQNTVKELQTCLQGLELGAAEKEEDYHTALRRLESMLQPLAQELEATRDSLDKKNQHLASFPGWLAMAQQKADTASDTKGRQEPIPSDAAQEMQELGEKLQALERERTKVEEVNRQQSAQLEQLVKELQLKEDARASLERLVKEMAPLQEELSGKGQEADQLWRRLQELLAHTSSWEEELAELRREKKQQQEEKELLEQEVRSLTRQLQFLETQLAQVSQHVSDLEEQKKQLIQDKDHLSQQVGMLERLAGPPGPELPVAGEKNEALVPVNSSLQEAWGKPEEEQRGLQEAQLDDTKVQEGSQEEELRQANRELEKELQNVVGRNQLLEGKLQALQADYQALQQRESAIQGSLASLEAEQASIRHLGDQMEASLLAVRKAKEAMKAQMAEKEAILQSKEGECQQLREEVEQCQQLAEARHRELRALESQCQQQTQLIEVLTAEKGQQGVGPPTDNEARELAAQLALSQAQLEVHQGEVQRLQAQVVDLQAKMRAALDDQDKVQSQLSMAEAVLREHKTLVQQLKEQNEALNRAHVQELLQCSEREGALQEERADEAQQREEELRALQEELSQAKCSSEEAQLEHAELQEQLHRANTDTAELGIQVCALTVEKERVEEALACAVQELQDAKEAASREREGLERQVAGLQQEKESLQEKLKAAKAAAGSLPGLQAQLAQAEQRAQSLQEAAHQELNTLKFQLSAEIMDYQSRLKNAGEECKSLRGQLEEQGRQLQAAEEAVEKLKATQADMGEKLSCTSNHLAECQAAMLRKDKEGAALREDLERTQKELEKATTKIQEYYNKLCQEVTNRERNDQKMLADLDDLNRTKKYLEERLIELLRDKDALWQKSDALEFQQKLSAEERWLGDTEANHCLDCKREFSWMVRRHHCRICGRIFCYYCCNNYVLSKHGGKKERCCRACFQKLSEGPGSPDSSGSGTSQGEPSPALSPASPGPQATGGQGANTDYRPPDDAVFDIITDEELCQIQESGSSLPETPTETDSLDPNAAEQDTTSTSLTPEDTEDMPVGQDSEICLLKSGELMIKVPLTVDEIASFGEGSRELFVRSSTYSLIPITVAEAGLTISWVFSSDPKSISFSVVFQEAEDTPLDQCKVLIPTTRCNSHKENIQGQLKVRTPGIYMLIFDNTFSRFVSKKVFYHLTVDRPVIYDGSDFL

A further assay concerns the target T3, ulk1_human ULK1 (UniProt O75385).
T3 sequence: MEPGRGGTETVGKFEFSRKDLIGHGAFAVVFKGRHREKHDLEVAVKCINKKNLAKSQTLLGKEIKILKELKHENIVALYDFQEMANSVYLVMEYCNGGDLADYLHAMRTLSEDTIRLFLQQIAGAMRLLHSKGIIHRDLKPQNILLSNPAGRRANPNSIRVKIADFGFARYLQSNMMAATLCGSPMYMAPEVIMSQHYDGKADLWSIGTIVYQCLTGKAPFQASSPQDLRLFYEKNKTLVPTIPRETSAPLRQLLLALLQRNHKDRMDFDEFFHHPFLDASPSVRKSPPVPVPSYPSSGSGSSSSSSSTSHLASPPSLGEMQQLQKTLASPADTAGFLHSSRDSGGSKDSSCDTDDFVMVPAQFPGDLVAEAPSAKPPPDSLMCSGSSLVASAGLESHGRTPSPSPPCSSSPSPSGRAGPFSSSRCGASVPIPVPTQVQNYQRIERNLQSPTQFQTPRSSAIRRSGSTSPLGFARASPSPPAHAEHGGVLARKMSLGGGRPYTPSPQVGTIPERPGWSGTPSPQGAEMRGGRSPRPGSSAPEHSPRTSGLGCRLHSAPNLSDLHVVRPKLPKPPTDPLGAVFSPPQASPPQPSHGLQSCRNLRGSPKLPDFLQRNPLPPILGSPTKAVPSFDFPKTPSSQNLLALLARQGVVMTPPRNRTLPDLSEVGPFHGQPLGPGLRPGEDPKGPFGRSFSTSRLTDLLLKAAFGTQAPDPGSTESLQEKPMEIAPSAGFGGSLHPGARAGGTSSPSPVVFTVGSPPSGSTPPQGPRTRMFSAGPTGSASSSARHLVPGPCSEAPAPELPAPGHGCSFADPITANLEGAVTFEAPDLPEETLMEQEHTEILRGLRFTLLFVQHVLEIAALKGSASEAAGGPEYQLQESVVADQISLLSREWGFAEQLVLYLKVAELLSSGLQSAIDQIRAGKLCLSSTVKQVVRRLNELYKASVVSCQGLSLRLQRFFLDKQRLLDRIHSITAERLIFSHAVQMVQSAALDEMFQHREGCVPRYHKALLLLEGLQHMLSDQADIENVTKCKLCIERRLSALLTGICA

Sequence of fan_human NSMAF (Q92636 whole entry): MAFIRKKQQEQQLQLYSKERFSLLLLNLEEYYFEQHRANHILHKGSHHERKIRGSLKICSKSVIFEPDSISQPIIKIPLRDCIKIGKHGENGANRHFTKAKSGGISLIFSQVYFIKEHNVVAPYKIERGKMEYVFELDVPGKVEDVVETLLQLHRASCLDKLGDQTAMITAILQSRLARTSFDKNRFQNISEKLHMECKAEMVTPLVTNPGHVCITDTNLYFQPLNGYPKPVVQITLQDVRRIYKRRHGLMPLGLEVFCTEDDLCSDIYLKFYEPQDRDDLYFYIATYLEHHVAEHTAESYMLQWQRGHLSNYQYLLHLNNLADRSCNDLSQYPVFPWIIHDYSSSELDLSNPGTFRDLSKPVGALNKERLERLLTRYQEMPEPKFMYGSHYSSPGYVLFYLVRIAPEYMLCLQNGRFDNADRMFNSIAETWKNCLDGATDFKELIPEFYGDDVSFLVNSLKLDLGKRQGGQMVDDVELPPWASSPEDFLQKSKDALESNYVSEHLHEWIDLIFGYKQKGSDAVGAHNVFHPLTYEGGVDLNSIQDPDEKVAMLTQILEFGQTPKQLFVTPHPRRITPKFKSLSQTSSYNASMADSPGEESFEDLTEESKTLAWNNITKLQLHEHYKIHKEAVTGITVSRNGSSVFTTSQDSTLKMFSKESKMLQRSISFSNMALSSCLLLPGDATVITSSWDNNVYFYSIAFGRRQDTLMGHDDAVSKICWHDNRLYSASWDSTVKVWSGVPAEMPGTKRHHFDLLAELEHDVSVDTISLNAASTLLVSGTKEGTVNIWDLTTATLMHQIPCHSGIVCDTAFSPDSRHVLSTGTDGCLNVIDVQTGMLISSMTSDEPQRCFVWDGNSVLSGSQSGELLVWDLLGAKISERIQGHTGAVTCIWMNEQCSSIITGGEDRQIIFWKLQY

For the substance “Microtubule-associated protein 1 light chain 3 beta (Homo sapiens) (from UniProt Q9GZQ8) F52A;L53A”, in the assay with ATG16L2, the “effect of a mutation on the interaction” value is reported as “increasing interaction”.
“Microtubule-associated protein 1 light chain 3 beta (Homo sapiens) (from UniProt Q9GZQ8) R69A”: the “effect of a mutation on the interaction” value in the assay with fan_human NSMAF was “disrupting interaction”; with fyco1_human FYCO1 it was “decreasing interaction”; with ulk1_human ULK1 it was “decreasing interaction”.
